Assay results as given in PMC3500399.

Biological target: SCR^AxCxA, split Renilla luciferase fusion (Arabidopsis thaliana) (UniProt Q9M384)
Assay: split reporter

UniProt Q9M384, sequence (Q9M384 whole entry, the tested form may be a part): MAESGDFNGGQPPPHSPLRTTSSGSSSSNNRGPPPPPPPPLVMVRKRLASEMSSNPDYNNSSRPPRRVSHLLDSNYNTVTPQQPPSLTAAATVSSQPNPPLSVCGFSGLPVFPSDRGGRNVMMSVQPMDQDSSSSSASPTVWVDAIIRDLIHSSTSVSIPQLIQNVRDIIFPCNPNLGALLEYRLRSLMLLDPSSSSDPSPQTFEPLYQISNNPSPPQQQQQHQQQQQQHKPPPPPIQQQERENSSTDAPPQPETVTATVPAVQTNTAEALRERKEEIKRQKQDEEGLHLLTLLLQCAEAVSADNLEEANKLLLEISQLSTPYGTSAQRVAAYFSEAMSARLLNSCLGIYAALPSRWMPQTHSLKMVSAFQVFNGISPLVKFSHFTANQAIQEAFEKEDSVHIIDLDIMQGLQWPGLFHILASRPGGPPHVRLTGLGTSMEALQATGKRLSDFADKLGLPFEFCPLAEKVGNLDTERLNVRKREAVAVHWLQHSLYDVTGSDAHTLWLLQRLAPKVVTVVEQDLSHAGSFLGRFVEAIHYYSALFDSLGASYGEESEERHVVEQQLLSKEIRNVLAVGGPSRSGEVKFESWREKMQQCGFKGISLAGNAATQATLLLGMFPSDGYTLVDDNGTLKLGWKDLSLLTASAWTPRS

percent of the RBR-SCR interaction (split Renilla luciferase): 11%
B1: RBR, split Renilla luciferase fusion (natural protein)
chain: MEEVQPPVTPPIEPNGKRSEASLLDICEKVLSLDGSTCDEALKLFTETKRILSASMSNIGSGTREEVERFWFAFILYSVKRLSVRKEADGLSVSGDNEFNLCQILRALKLNIVDFFKELPQFVVKAGSVLGELYGADWENRLQAKEVQANFVHLSLLSKYYKRGFREFFLTYDANAEKNSANSSTYLLDSYRFGWLLFLALRNHAFSRFKDLVTCSNGVVSILAILIIHVPCRFRNFSIQDSSRFVKKGDKGVDLVASLCKIYDASEDELRIVIDKANNLVETILKKKPSPASECQTDKLDNIDPDGLTYFEDLLEETSISTSLITLEKDYYDGKGELDERVFINEEDSLLGSGSLSAGAVNITGVKRKIDALSSPARTFISPLSPHKSPAAKTNGISGATKLAATPVSTAMTTAKWLRTVISPLLPKPSPGLEHFLKSCDRDITNDVTRRAHIILEAIFPNSSLGAQCGGGSLQAVDLMDDIWAEQRRLEACKLYYRVLEAMCKAEAQILHANNLNSLLTNERFHRCMLACSAELVLATHKTITMLFPAVLERTGITAFDLSKVIESFIRHEDSLPRELRRHLNSLEERLLESMVWEKGSSMYNSLIVARPSLALEINQLGLLAEPMPSLDAIAALINFSDGANHASSVQKHETCPGQNGGIRSPKRLCTDYRSILVERNSFTSPVKDRLLALGNVKSKMLPPPLQSAFASPTRPNPGGGGETCAETGINIFFTKINKLAAVRINGMVERLQLSQQIRESVYCFFQHVLAQRTSLLFSRHIDQIILCCFYGVAKISQMSLTFREIIYNYRKQPQCKPLVFRSVYVDALQCRRQGRIGPDHVDIITFYNEIFIPAVKPLLVELGPVRNDRAVEANNKPEGQCPGSPKVSVFPSVPDMSPKKVSAVHNVYVSPLRGSKMDALISHSTKSYYACVGESTHAYQSPSKDLSAINNRLNNSSSNRKRTLNFDAEAGMVSDSMVANSLNLQNQNQNQNGSDASSSGGAAPLKTEPTDS
